Experimental data as given in patent publication US8697369B2, “Method for screening a test substance for activating a receptor associated with FGF 21 activity” (National Institute of Advanced Industrial Science and …, priority 2007, dated 2014).

Key:
Format in all cases: binding
[1] = target: T1, FGF receptor subtype R3c (FGFR-Fc) (Homo sapiens, UniProt P22607); test: Co-precipitation of soluble betaKlotho with FGFR-Fc (protein A beads), R3c
T1 construct: adding an immunoglobulin Fc domain to the extracellular domain of an FGF receptor; purchased R&D Systems
T1 sequence (P22607 23-375 limits assumed): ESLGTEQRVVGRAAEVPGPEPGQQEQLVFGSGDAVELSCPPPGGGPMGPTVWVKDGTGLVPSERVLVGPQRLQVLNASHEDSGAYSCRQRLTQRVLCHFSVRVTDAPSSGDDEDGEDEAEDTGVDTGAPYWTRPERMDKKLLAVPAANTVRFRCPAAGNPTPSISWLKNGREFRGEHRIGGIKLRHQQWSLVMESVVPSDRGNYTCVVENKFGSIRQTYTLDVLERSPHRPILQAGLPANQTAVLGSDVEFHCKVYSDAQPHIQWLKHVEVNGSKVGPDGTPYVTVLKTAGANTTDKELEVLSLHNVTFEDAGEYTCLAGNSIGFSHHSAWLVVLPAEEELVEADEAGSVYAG
Method: (§1) Moreover, the soluble betaKlotho protein and a fusion protein obtained by adding an immunoglobulin Fc domain to the extracellular domain of an FGF receptor (FGFR-Fc; manufactured by R&D Systems) were incubated, and FGFR-Fc was then precipitated using protein A beads. Whether or not betaKlotho bound to FGFR-Fc and was co-precipitated therewith was analyzed.

[2] = target: T2, FGF receptor subtype R4 (FGFR-Fc) (Homo sapiens, UniProt P22455); test: Co-precipitation of soluble betaKlotho with FGFR-Fc (protein A beads), R4
T2 construct: adding an immunoglobulin Fc domain to the extracellular domain of an FGF receptor; purchased R&D Systems
T2 sequence (P22455 22-369 limits assumed): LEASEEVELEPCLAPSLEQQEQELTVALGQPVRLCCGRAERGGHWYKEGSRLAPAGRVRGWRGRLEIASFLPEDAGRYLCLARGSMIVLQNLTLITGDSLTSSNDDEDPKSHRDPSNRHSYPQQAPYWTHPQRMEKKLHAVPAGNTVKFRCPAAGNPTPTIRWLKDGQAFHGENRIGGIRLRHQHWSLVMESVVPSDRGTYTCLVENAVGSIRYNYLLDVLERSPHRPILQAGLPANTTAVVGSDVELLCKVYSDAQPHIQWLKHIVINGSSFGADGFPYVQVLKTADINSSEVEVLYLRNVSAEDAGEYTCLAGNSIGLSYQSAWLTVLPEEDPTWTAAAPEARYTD
Method: as §1

[3] = target: T3, FGF receptor subtype R2c (FGFR-Fc) (Homo sapiens, UniProt P21802); test: Co-precipitation of soluble betaKlotho with FGFR-Fc (protein A beads), R2c
T3 construct: adding an immunoglobulin Fc domain to the extracellular domain of an FGF receptor; purchased R&D Systems
T3 sequence (P21802 22-377 limits assumed): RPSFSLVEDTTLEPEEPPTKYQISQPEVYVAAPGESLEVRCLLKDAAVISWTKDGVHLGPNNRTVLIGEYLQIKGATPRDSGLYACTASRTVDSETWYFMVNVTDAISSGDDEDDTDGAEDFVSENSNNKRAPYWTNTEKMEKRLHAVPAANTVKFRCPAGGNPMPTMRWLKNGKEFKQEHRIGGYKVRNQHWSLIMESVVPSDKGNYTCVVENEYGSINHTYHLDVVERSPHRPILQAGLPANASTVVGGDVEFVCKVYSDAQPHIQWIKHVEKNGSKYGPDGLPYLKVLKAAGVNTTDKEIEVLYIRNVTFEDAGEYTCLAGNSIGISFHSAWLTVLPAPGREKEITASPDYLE
Method: as §1

[4] = target: T4, FGF receptor subtype R1c (FGFR-Fc) (Homo sapiens, UniProt P11362); test: Co-precipitation of soluble betaKlotho with FGFR-Fc (protein A beads), R1c
T4 construct: adding an immunoglobulin Fc domain to the extracellular domain of an FGF receptor; purchased R&D Systems
T4 sequence (P11362 22-376 limits assumed): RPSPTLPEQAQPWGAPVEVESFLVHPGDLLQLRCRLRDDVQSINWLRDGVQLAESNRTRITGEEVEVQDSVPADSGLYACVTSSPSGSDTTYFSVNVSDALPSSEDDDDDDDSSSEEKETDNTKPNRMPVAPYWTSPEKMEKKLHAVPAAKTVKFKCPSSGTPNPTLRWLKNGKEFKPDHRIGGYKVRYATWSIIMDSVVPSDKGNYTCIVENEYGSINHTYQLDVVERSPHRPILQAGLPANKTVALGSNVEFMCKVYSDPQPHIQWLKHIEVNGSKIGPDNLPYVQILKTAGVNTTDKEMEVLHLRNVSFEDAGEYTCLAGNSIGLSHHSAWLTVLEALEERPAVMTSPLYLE
Method: as §1

Measured: co-precipitation (binding) with FGFR-Fc

betaKlotho: soluble protein: extracellular domain of betaKlotho with V5 tag and His tag at the C-terminus
binds to all of FGF receptor subtypes: all assays above
